Assay results as given in the nanobody polyreactivity screen of Harvey et al. (2022).

Assay: yeast display, Sf9 membrane polyspecificity reagent, FACS + sequencing; frameworks hold sequencing errors
How it was run: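 A nanobody's polyreactivity label depends on the gate it was sorted from. Yeast display cells were stained with 10% biotinylated, detergent-solubilized Sf9 membrane reagent for 1 hour at 4 °C, enriched on streptavidin microbeads and sorted by FACS. The low and high (top ~1%) gates were set on anti-HA fluorescence for expression and streptavidin fluorescence for reagent binding.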

| Sequence | polyreactivity (PSR sort gate) |
| --- | --- |
| QVQLVESGGGLVQAGGSLRLSCAASGSTFYWYAMGWYRQAPGKERELVASISWSGGRTYYADSVKGRFTISRDTAKNTVYLQMNSLKPEDTAVYYCAARRKGRYYYWGQGTQVTVSS | high polyreactivity |
| QVQLVESGGGLVQAGGSLRLSCAASGSTFDYYAMGWYRQAPGKERELVAAITGTGGSTYYADSVKGRFTISRDNAKNTVYLQMNSLKPEDTAVYYCAADTYLGWSYYWGQGTQVTVSS | high polyreactivity |
| QVQLVESGGGLVQAGGSLRLSCAASGSTFNRYAMGWYRQAPGKERELVASISCSGGGSTYYADSVKGRFTISRDNAKNTVYLQMNSLKPEDTAVYYCAVSRDSYGGKGSVLYDYWGQGTQVTVSS | low polyreactivity |
| QVQLVESGGGLVQAGGSLRLSCAASGFIFGDYAMGWYRQAPGKERELVAAINYSGGSTYYADSVKGRFTISRDNAKNTGYLQMNSLKPEDTAVYYCAALIYGLVGWGQGTQVTVSS | low polyreactivity |
| QVQLVESGGGLVQAGGSLRLSCAASGRTSAWYAMGWYRQAPGKERELVADISGSADSTYYADSVKGRFTISRDNAKNTVYLQMNSLKPEDTAVYYCATSISTPSGDPFDYWGQGTQVTVSS | low polyreactivity |
| QVHLVESVGGLVQAGGSLRLSCAGSGRIFYLNSMGWYRQATGKDRELVAGITNSTTGTYYADSVKGRFKISRDNAKNTVYLQMNSLKAEETAVYYCNTDVAYEEPVETYDYWGQGTQVTVSS | low polyreactivity |
| KVQLVDSGGGLVQAGGSLRLSCAASGSIFGDNAMGWYIQAPGKERELVAAISIVGSTSYADSVKGRFTISRDNAKNTVYLLMNSLKPEDTAVYYCAAENVRSDTGFDYCGQGTQVTVSS | low polyreactivity |
| QVQLVESGGGLVQAGGSLRISCAASGRIFTPNAMGWYRQAPGKERELVAAITWSGDNTYADSVKGRFTISRDNAKKTVYLHMNTLKPEDTAVYYCAAAYGYGHKKYGYWGQGTQVTVSS | low polyreactivity |
| QVQLVESGGGLVQAGGSLRLSCAASGITFYRNAMGWYRKAPGKERELLAAISWSGGRTYYADSVKGRFTISRDNAKNTVYLQMNSLKPEDTAVYYCAASSWSSYYRPKYYWGQGTQVTVSS | high polyreactivity |
| QVQLVESGGGLVQAGGSLRLSCAASGSIFWYYAMGWYRQAPGKERELVATITSGGTNYADSVKGRFTISRDNAKNTVYLQMNSLKPEDTAVYYCNADVSWSRIFYLGYDSNDYWGQGTQVTVSS | low polyreactivity |
| QVQLVESGGGLVQAGGSLRLSCAASGRIFTSYAMGWYRQAPGKERELVAAITSGGRTYYADSVKGRFTISRDNAKNTVYLQKNSLKAEDTAVYYCNAPRYLRYNYCGQGTQVTVSS | high polyreactivity |
| QVQLVESGGGIVQAGGSLRLSCAASGNTYRWYAMGWNIQAPGKEREFVADITVRGGSTYYADSVKGRFTISRDNAKNTVYLQMNSLKPEDTAVYYCAADYRYGGSRGYRYDYWGQGTQVTVSS | low polyreactivity |
| QVQLVESGGGLVQAGGSLRLSCAASGGIFSYYTMGWYRQAPGKERELVARITTGGSTNYADSVKGRFTISRDNAKNTVYLQMNSLKPEDTAVYYCAATGPKYWLTWSSYTRYDYWGQGTQVTVSS | high polyreactivity |
| QVQLVESGGGLVQAGGSLRLSCAASGRTFRYYTMGWYRQAPGKEREFVAAISSTGGTYYADSVKGRFTISRDNAKNTVYLQMNSLKPEDTAVYYCNADTIYYAGDFRYDYWGQGTQVTVSS | low polyreactivity |
| QVQLVESGGGLVQAGGSLRLSCAASGSIFRGYAMGWYRQAPGKERELVAAITSSGGSTNYADSVKGRFTISRDNAKNTVYLQMNSLKPEDTAVYYCAKAPGLWHLIQRMDYWGQGTQVTVSS | low polyreactivity |
| QVQLVESGRGLVQAGGSLRLSCAASGFTFGYYAMGWYRQAPGKERELVASISRSGGSTNYADSVKGRFTISRDNAKNTVYLQMNSLKPEDTAVYYCNKRSYWYQGRFDYWGQGTQVTVSS | high polyreactivity |
| QVQLVESGGGLVQAGGSLRLSCAASGSIFGVNAMGWYRQAPGKERELVAAISSGGSTNYADSVKGRFTISRDNAKNTVYLQMNSLKPEDTAVSYCNTLWGHQYIGPYRTRECYYWGQGTQVTVSS | low polyreactivity |
